Measured values from US20190040142A1 (Genentech, published 2019).

Key:
Rat KLB = target: T1, Rat KLB (limits assumed); experiment: FACS, HEK293T cells expressing human/rat KLB chimeric proteins; summary table of + and - by epitope bin
T1 construct: also called rat Klotho-beta
T1 single chain: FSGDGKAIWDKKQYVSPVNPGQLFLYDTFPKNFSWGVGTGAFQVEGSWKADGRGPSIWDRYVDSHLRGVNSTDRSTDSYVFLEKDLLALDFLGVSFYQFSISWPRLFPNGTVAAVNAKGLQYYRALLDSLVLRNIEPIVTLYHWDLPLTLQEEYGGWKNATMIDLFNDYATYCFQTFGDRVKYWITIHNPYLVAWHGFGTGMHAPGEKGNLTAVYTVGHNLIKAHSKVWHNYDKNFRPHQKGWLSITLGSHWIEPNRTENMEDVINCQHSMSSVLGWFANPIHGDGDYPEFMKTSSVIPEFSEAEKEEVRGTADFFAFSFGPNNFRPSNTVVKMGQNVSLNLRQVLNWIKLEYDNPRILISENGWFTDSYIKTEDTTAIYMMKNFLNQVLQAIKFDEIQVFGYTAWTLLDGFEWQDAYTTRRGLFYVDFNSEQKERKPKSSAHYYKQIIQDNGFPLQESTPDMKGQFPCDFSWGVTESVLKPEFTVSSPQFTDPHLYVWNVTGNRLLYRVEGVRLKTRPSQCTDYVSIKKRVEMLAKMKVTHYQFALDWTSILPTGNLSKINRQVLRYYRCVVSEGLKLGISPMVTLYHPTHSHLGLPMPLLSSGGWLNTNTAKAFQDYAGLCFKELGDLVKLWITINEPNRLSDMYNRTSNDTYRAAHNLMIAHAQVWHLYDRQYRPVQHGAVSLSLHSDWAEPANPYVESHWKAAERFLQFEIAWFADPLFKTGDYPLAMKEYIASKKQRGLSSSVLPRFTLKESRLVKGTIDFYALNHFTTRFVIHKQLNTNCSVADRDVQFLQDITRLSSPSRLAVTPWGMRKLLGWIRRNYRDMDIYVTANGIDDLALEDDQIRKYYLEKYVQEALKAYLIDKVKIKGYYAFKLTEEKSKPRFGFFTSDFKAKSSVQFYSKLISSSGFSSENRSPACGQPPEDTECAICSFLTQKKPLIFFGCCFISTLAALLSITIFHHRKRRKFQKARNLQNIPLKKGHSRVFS

[1] = target: T2, recombinant human KLB (soluble protein) (human, UniProt Q86Z14 53-997, limits assumed); experiment: SPR, Biacore T200, antibody captured on Protein A chip, monomeric human KLB as analyte, 25 C; mean of two experiments
T2 construct: also called monomeric human KLB; recombinant KLB
Procedure: (§1) For binding affinity determination of tcIgG and traditional IgG, surface plasmon resonance (SPR) measurements using a BIAcore T200 and ProteinA sensor chip was used and dilutions of monomeric human KLB as analyte were injected over the immobilized tcIgG or traditional IgG at 25° C. to determine monovalent affinities. Association rates (kon) and dissociation rates (koff) were calculated using a simple one-to-one Langmuir binding model. The equilibrium dissociation constant (Kd) was calculated as the ratio koff/kon.

[2] = target: T2, recombinant human KLB (soluble protein); experiment: SPR, Biacore T200, antibody captured on Protein A chip, monomeric human KLB as analyte, 25 C; mean ± range of two experiments
Procedure: as §1

[3] = target: T2, recombinant human KLB (soluble protein); experiment: SPR (BIAcore T200), antibody captured on Protein A chip, monomeric human KLB as analyte, 25 C, 1:1 Langmuir fit
Procedure: as §1

[4] = target: T2, recombinant human KLB (soluble protein); experiment: binding affinity test of Example 7 (FIG. 21); method not restated, presumably the Biacore assay of Example 6; text of Example 7 (FIG. 21); Table 9 prints 2.06 ± 0.11 nM
Procedure: as §1

B1: anti-KLB monoclonal antibody 28B7 (antibody, IgG1, V domains shown)
VH: EVQLQQSGPELVQPGTSVKISCEASGYTFTDYYINWVKQSRGKSLEWIGDINPNNGDTTYNQKFKAKATLTVDRSSNTAYMELRSLTSEDSVVYYCARRFYSSPFDSWGQGTTLTVSS
VL: DIVMTQSPSSLAVSVGEKVTLSCKSGQSLLYSRNQKNYLAWYQQKPGQSPKLLISWASTRESGVPDRFTGSGSGTDFTLTISSVKTEDLAVYHCQQYYSYPYTFGGGTRLEIK
notes: also called clone 28B7; 28B7 IgG
binding result (Rat KLB): no binding (tested: not given) | kon [1]: 104000 M⁻¹ s⁻¹ | Kd [2]: 2.65 nM | koff [2]: 0.000276 s⁻¹ | kon [3]: 104000 M⁻¹ s⁻¹

B2: anti-KLB antibody clone 28B7 in tri-chain IgG format (antibody)
chain 1: DIVMTQSPSSLAVSVGEKVTLSCKSGQSLLYSRNQKNYLAWYQQKPGQSPKLLISWASTRESGVPDRFTGSGSGTDFTLTISSVKTEDLAVYHCQQYYSYPYTFGGGTRLEIKRGGGGSGGGGSGGGGSGGGGSEVQLQQSGPELVQPGTSVKISCEASGYTFTDYYINWVKQSRGKSLEWIGDINPNNGDTTYNQKFKAKATLTVDRSSNTAYMELRSLTSEDSVVYYCARRFYSSPFDSWGQGTTLTVSS
chain 2: not shown
notes: VL-linker-VH-CH1-CH2-CH3 (VLfH) plus a separate CL domain disulfide-bonded to CH1; also called 28B7 tcIgG; 28B7 tcIgG1; not shown: human IgG1 heavy chain constant region (CH1-hinge-CH2-CH3); monospecific tcIgG were made by c
Kd [2]: 2.06 nM | koff [2]: 0.000244 s⁻¹ | kon [2]: 117000 M⁻¹ s⁻¹ | kon [3]: 119000 M⁻¹ s⁻¹ | Kd [4]: 2.05 nM
